According to patent US20040110287A1, “Multi-step method for the differentiation of insulin positive, glucose responsive cells” (ES Cell International Pte Ltd., priority 2002, published 2004):

Tested on: pdx1+ cells
Experiment: Expansion of pdx1+ cells in non-adherent clusters of human pancreatic duct cells
Format: cell-based
Procedure: Pancreatic duct cells were isolated from human donor tissue, using the methods described in detail in Example 2. The cells were plated as non-adherent cell clusters in DMEM-F12 (pH 7.4), 2 mM glutamine, 1% penicillin-streptomycin, 2% B27 (Life Sciences Technologies) and 8 mM HEPES. Following 1-4 days in culture, the media was changed to DMEM-F12 (pH 6.9-7.1), 2 mM glutamine, 1% penicillin-streptomycin, and 2% B27 (Life Sciences Technologies). This media was supplemented with the following four factors: dexamethasone (10^−7-10^−9 M), forskolin (10 μM), insulin (20 μg/ml) and FGF-18 (20 ng/ml). The media was optionally supplemented with heparin which is often used to enhance the effects of FGF. The cells were cultured for a number of days in this supplemented media which was changed daily.
Following approximately one day in culture, Pdx1+ cells (a marker of pancreatic progenitor cells) began appearing on the surface of the non-adherent clusters. The size and number of Pdx1+ cells continues to increase for approximately 12 days. Following 8 to 12 days in culture under expansion conditions, non-adherent cell clusters containing an increased number of Pdx1+ cells were subjected to a differentiation protocol to produce insulin+, glucose responsive cell clusters.
This effect on pdx1 expression was further augmented if the follistatin-related factor follistatin or a combination of follistatin and the GLP-1 agonist exendin-4 was added to the above list of factors used to supplement the acidic culture medium. Briefly, cultures expanded in forskolin (a cAMP elevating agent), dexamethasone (a corticosteroid), insulin, FGF18 (a FGF family member), heparin (known to potentiate the activity of FGF family members), and follistatin (a follistatin-related factor) contained approximately 281 fold more pdx1+ cells than cells differentiated in the absence of the expansion protocol. […]

B1: follistatin (protein, UniProt P19883 30-344, looked up)
Follistatin: GNCWLRQAKNGRCQVLYKTELSKEECCSTGRLSTSWTEEDVNDNTLFKWMIFNGGAPNCIPCKETCENVDCGPGKKCRMNKKNKPRCVCAPDCSNITWKGPVCGLDGKTYRNECALLKARCKEQPELEVQYQGRCKKTCRDVFCPGSSTCVVDQTNNAYCVTCNRICPEPASSEQYLCGNDGVTYSSACHLRKATCLLGRSIGLAYEGKCIKAKSCEDIQCTGGKKCLWDFKVGRGRCSLCDELCPDSKSDEPVCASDNATYASECAMKEAACSSGVLLEVKHSGSCNSISEDTEEEEEDEDQDYSFPISSILEW
fold more pdx1+ cells than cells differentiated in the absence of the expansion protocol (4 days basal medium, 4 days acidic expansion medium, before differentiation): approximately 281 fold | fold increase in total islet equivalents (IEs) versus multistep differentiation protocol alone (FIG. 5): 281 fold | pdx1 expression versus expansion medium alone (FIG. 6 and FIG. 7, added to expansion medium): increase in pdx1 expression
